Laboratory results: publication PMC12846431

Target: TMR-NTT (TMR-labeled Serinc3 NTT(Cys16) peptide, MBP removed) (UniProt Q13530)
Assay: fluorescence polarisation
Details: read off a plot

Q: “complex of wild-type MBP-Nef with the α(1–398)/σ2 hemicomplex of AP2 (from UniProt Q90VU7;P18484;P53680) F121D” was tested. Which response did it give?
A: 20 mP

Q: For “complex of wild-type MBP-Nef with the α(1–398)/σ2 hemicomplex of AP2 (from UniProt Q90VU7;P18484;P53680) L112D”, which response is on record?
A: 16 mP

Q: “complex of wild-type MBP-Nef with the α(1–398)/σ2 hemicomplex of AP2 (from UniProt Q90VU7;P18484;P53680) L37D” was tested. Which response did it give?
A: 37 mP

Q: Which response does the source give for “complex of wild-type MBP-Nef with the α(1–398)/σ2 hemicomplex of AP2 (from UniProt Q90VU7;P18484;P53680) W57A; L58A” here?
A: 55 mP

Q: For “complex of wild-type MBP-Nef with the α(1–398)/σ2 hemicomplex of AP2 (from UniProt Q90VU7;P18484;P53680) D123K”, which response is on record?
A: 45 mP

Target: complex of wild-type MBP-Nef with the α(1–398)/σ2 hemicomplex of AP2 (HIV-1 (NL4.3) | not stated) (UniProt Q90VU7)
Assay: fluorescence polarisation; α(1–398)/σ2 (20 µM) and MBP-Nef WT or mutant (30 µM) mixed 30 min at room temperature, then 200 nM TMR-NTT, 15 μL, 1 or 2 h at room temperature; single concentration; control is probe only
Details: not given

Q: With “TMR-NTT (TMR-labeled Serinc3 NTT(Cys16) peptide, MBP removed) (from UniProt Q13530 1-39)” as the substance, how does the FP signal read?
A: 90 mP
